Measured values as given in publication PMC5674894.
Read-outs that look alike come from different tables or passages of the source.

How the values were obtained:
Assay in all cases: FRET or BRET
[1] = target: RNC_(RodZ): ribosome-nascent chain complex displaying the N-terminal 180 amino acids of RodZ (UniProt P27434)
[2] = target: RNC_(RodZ): ribosome-nascent chain complex displaying the N-terminal 180 amino acids of RodZ (UniProt P27434); remark: listed apart in the source
[3] = target: RNC_(RodZ) bearing the mutant TMD with two arginines introduced (UniProt P27434)
[4] = target: RNC_(RodZ160): ribosome-nascent chain complex with a RodZ nascent chain of 160 amino acids (UniProt P27434)
[5] = target: RNC_(RodZ): ribosome-nascent chain complex displaying the N-terminal 180 amino acids of RodZ (UniProt P27434); remark: listed apart in the source

## SecA(C98S/S12C) labeled at residue 12 with BODIPY-FL (from UniProt P10408 1-901) (enzyme)
[1]
  Kd: 55 nM
[2]
  Kd: 19 nM
[3]
  Kd: 25.9 nM
[4]
  Kd: 0.94 nM
[5]
  Kd: 1 nM
  reduction in Cm donor fluorescence (FRET): 44%
